Experimental data from article PMC7452315, “Alternative Splicing of a Receptor Intracellular Domain Yields Different Ectodomain Conformations, Enabling Isoform-Selective Functional Ligands” (iScience, 2020).
Blank lines part the entries; values can stand above or below the molecule they belong to.

Assays:
[1] = molecular target: TrkC-FL D5 (Homo sapiens) (UniProt Q16288); details: cited from earlier work
TrkC ECD (Homo sapiens) = TrkC ECD (Homo sapiens) (UniProt Q16288); details: cited from earlier work
TrkC ECD (Homo sapiens), sequence (Q16288 32-429): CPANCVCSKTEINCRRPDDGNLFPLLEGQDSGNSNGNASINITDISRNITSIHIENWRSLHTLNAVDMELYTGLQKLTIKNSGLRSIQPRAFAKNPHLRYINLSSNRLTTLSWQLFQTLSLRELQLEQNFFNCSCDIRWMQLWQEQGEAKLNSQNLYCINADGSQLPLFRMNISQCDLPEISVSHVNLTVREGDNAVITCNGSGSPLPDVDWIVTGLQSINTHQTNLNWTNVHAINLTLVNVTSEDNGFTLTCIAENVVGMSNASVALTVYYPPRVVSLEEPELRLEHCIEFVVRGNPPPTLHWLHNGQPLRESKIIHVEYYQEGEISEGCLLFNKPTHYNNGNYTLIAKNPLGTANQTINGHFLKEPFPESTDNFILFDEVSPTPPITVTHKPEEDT

[2] = molecular target: truncated TrkC.T1 receptor; experiment: co-IP; HEK293 lysates expressing TrkC.T1, TrkC-FL or TrkC-Δ-ICD; immunoprecipitated with a pan-TrkC antibody; reducing and non-reducing SDS-PAGE; blotted with two anti-PDI mAbs or anti-pan-TrkC
truncated TrkC.T1 receptor, sequence (Q16288 32-839): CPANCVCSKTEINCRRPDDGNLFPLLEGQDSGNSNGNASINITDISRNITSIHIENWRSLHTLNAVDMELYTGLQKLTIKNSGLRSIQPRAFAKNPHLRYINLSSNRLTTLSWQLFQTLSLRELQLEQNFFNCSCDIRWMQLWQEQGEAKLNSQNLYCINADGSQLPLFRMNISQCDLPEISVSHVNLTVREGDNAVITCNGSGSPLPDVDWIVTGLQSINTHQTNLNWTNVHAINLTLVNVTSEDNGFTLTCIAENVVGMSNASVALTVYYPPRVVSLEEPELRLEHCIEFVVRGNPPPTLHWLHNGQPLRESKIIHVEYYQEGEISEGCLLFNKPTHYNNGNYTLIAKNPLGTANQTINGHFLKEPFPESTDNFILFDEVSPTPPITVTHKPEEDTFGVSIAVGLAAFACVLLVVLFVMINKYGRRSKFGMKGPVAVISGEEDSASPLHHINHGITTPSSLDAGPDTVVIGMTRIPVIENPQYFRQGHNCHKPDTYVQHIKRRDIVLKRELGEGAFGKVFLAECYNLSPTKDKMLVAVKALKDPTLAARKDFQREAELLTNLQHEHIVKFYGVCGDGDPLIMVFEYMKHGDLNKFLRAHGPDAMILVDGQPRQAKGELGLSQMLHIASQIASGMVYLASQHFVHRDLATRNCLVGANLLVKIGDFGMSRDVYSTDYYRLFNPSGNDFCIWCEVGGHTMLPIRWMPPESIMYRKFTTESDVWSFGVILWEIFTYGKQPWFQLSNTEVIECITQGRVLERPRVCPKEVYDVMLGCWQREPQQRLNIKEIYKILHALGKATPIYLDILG

[3] = molecular target: T1, full-length TrkC (TrkC-FL) (UniProt Q16288 32-839); experiment: cell-based or functional assay
T1 sequence (Q16288 32-839): as above

[4] = molecular target: truncated TrkC.T1 receptor; experiment: flow cytometry on cells; quantitative flow cytometry on live, non-permeabilised cells stably transfected with TrkC-FL or TrkC.T1; ligand at saturating concentration; read-out is fold-increase in mean fluorescence intensity over controls; NT-3-biotin detected with avidin-fluorescein, PTP-sigma with anti-human secondary
[5] = molecular target: T1, full-length TrkC (TrkC-FL); experiment: as above; details: one partner purified
[6] = molecular target: T1, full-length TrkC (TrkC-FL); experiment: cell-based or functional assay; remark: listed apart in the source

TrkC-FL D5 (Homo sapiens), sequence (Q16288 300-413): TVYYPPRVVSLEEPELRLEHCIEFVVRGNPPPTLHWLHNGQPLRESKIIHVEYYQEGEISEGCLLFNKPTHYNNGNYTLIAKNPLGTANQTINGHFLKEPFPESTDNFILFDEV

Molecule: NT-3 (from UniProt P20783)
Kd [1]: 0.05 nM

Molecule: PTP-sigma (from UniProt Q13332)
Kd (TrkC ECD (Homo sapiens)): 9.3 nM

B2: ectodomain of PTP-sigma (domain or fragment, UniProt Q13332 30-1282, looked up)
chain: EEPPRFIKEPKDQIGVSGGVASFVCQATGDPKPRVTWNKKGKKVNSQRFETIEFDESAGAVLRIQPLRTPRDENVYECVAQNSVGEITVHAKLTVLREDQLPSGFPNIDMGPQLKVVERTRTATMLCAASGNPDPEITWFKDFLPVDPSASNGRIKQLRSETFESTPIRGALQIESSEETDQGKYECVATNSAGVRYSSPANLYVRELREVRRVAPRFSILPMSHEIMPGGNVNITCVAVGSPMPYVKWMQGAEDLTPEDDMPVGRNVLELTDVKDSANYTCVAMSSLGVIEAVAQITVKSLPKAPGTPMVTENTATSITITWDSGNPDPVSYYVIEYKSKSQDGPYQIKEDITTTRYSIGGLSPNSEYEIWVSAVNSIGQGPPSESVVTRTGEQAPASAPRNVQARMLSATTMIVQWEEPVEPNGLIRGYRVYYTMEPEHPVGNWQKHNVDDSLLTTVGSLLEDETYTVRVLAFTSVGDGPLSDPIQVKTQQGVPGQPMNLRAEARSETSITLSWSPPRQESIIKYELLFREGDHGREVGRTFDPTTSYVVEDLKPNTEYAFRLAARSPQGLGAFTPVVRQRTLQSKPSAPPQDVKCVSVRSTAILVSWRPPPPETHNGALVGYSVRYRPLGSEDPEPKEVNGIPPTTTQILLEALEKWTQYRITTVAHTEVGPGPESSPVVVRTDEDVPSAPPRKVEAEALNATAIRVLWRSPAPGRQHGQIRGYQVHYVRMEGAEARGPPRIKDVMLADAQWETDDTAEYEMVITNLQPETAYSITVAAYTMKGDGARSKPKVVVTKGAVLGRPTLSVQQTPEGSLLARWEPPAGTAEDQVLGYRLQFGREDSTPLATLEFPPSEDRYTASGVHKGATYVFRLAARSRGGLGEEAAEVLSIPEDTPRGHPQILEAAGNASAGTVLLRWLPPVPAERNGAIVKYTVAVREAGALGPARETELPAAAEPGAENALTLQGLKPDTAYDLQVRAHTRRGPGPFSPPVRYRTFLRDQVSPKNFKVKMIMKTSVLLSWEFPDNYNSPTPYKIQYNGLTLDVDGRTTKKLITHLKPHTFYNFVLTNRGSSLGGLQQTVTAWTAFNLLNGKPSVAPKPDADGFIMVYLPDGQSPVPVQSYFIVMVPLRKSRGGQFLTPLGSPEDMDLEELIQDISRLQRRSLRHSRQLEVPRPYIAARFSVLPPTFHPGDQKQYGGFDNRGLEPGHRYVLFVLAVLQKSEPTFAASPFSDPFQLDNPDPQPIVDGEEG
notes: receptor-type tyrosine-protein phosphatase sigma, ectodomain; Probably a human Fc fusion, since it was detected with an anti-human secondary; also called PTP-sigma ectodomain; not shown: Fc (human)
EC50 of bioactivity from dose-response curves (cell survival via TrkC-FL) [3]: 8 nM | cell survival (MTT) of TrkC-FL-expressing cells in serum-free media, efficacy relative to 2 nM NT-3 (100%) [6]: 105 % of 2 nM NT-3 | fold-increase in ligand binding over controls (mean fluorescence intensity) [4]: 3.7 fold | fold-increase in ligand binding over controls (mean fluorescence intensity) [5]: 5 fold

The next lines start with results.

fold associated PDI (PDI/TrkC ratio) against TrkC-FL and TrkC-Δ-ICD [2]: 4 to 6 fold
Molecule: Protein Disulfide Isomerase (PDI) (from UniProt P07237 18-508) (enzyme)

fold-increase in ligand binding over controls (mean fluorescence intensity) [4]: 7 fold | fold-increase in ligand binding over controls (mean fluorescence intensity) [5]: 9 fold
B1: NT-3 (ligand, UniProt P20783 139-257, looked up)
chain: YAEHKSHRGEYSVCDSESLWVTDKSSAIDIRGHQVTVLGEIKTGNSPVKQYFYETRCKEARPVKNGCRGIDDKHWNSQCKTSQTYVRALTSENNKLVGWRWIRIDTSCVCALSRKIGRT
modifications: biotin (NT-3-biotin in the flow cytometry binding assay)
notes: neurotrophin-3, soluble growth factor; also called NT-3-biotin
EC50 of bioactivity from dose-response curves (cell survival via TrkC-FL) [3]: 0.2 nM
